This note sets out measurements from the nanobody polyreactivity screen of Harvey et al. (2022).

The data set can be described thus: yeast display, Sf9 membrane polyspecificity reagent, FACS + sequencing; frameworks hold sequencing errors. In short, it runs like this:
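Polyreactivity labels are assigned by the sorting gate from which each nanobody was recovered. The gates were low and high (top ~1%), set on anti-HA fluorescence for expression and streptavidin fluorescence for reagent binding. Before sorting, galactose-induced (36–48 hours) yeast display cells were stained for 1 hour at 4 °C with 10% biotinylated, detergent-solubilized Sf9 membrane reagent.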
As to “QVQLVESGGGLVQAGGSLRLSCAASGNIFRGYTMGWYRQAPGKERELVATITWNGVSTFYADSVKGRFTISRDNAKNTVYLQMNSLIPEETAVYYCPAYYPSHDYSGVWSDTYEYWGQGTQVTVSS”, the “polyreactivity (PSR sort gate)” value was “low polyreactivity”.

For “QVQLVESGGGLVQAGGSLRLSCAASGNIFRINGMGWYRQAPGKERELVASITRSGSTYYADSVKGRFTISRDNANNTVYLKMNSLKPEDTAVYYCAADSRRYGVRFDYWGQGTQVTVSS”, the “polyreactivity (PSR sort gate)” value is recorded as “low polyreactivity”.

For “QVQLVESGGGLVQAGGSLRLSCAASGNIFRKNAMGWYRQAPGKERELVAAISRRGGNTYYADSVKGRFTISRDNAKNTVYLQMNSLKPEDTAVYYCAADWSPTAASDYWGQGTQVTVSS”, the “polyreactivity (PSR sort gate)” value is “high polyreactivity”.

Regarding “QVQLVESGGGLVQAGGSLRLSCAASGNIFRPYTMGWYSQAPGKERQLVARISSGGSTNYADSVKGRFTISRDNAKNTVYLQMNSLKPEDTAVYYCAKRYGTVHSRYGYWGQGTQVTVSS”, the “polyreactivity (PSR sort gate)” value is “high polyreactivity”.

With “QVQLVESGGGLVQAGGSLRLSCAASGNIFRRYAMGWYRQAPGKERELVAAISRGGTRTYYADSVKGRFTISRDNAKNTVYLQMNSLKPEDTAVYYCNAEVKTNYRIADYDYWGQGTQVTVSS”, the “polyreactivity (PSR sort gate)” value is “high polyreactivity”.

For “QVQLVESGGGLVQAGGSLRLSCAASGNIFRYYVMGLYRQAAGKEREFVAAITSSGGSTYYADSVKGRFTISRDNAKKTVYLQMNSLKPEDTAVYYCAKDYWDPGWAEYDYWGQGTQVTVSS”, the “polyreactivity (PSR sort gate)” value was “low polyreactivity”.

For “QVQLVESGGGLVQAGGSLRLSCAASGNIFSTYAIGWTRQAPGKERELVASISENGGSTYYADSVKGRFTISRDNAKNTVYLQMNSLKPDDTAVYYCAKGQLYSLFFQHDAPYRYGYWGQGTQVTVSS”, the “polyreactivity (PSR sort gate)” value is on record as “low polyreactivity”.

As for “QVQLVESGGGLVQAGGSLRLSCAASGNIFSWYAKGWYRQAPGKERELVAAITSGGRTYYADSVKGRFTISRDNAKNTVYLQMNSLKPEDTAVYYCNAVSRLYNRRDYWVQGTQVTVSS”, the “polyreactivity (PSR sort gate)” value is on record as “high polyreactivity”.

For the sequence “QVQLVESGGGLVQAGGSLRLSCAASGNIFTYNTMGWYRQAPRKERELVAAISSGGSTYYADSVKGRFTISRDNAKNTVYLQMNSLKPEDTAVYYCNRRRWLWQTARGDYWGQGTQVTVSS”, the “polyreactivity (PSR sort gate)” value was “high polyreactivity”.

Regarding “QVQLVESGGGLVQAGGSLRLSCAASGNIFVRYAMGWYRQAPGKERELVAAISRGGRTNYADSVKGRFTISRDNAKNTVYLQMNSLKPEDTAVYYCAADVRYHFYYWGQGTQVTVSS”, the “polyreactivity (PSR sort gate)” value is on record as “high polyreactivity”.

For “QVQLVESGGGLVQAGGSLRLSCAASGNIFVWYDMGWYREAPGKERELVATITSSGGSTYYADSVKGRFTISRDNAKNTVYLQMNSLKPEDTAVYYCNALPYYRDDYWGQGTQVTVSS”, the “polyreactivity (PSR sort gate)” value is “low polyreactivity”.

As for “QVQLVESGGGLVQAGGSLRLSCAASGNIFWRYGMGWYRQAPGKERELVAAITSGGTGTYYADSVKGRFTISRDNAKNTVYLQMNSLKPEDTAVYYCAARRWTNHYFYGWFYYWGQGTQVTVSS”, the “polyreactivity (PSR sort gate)” value is listed as “high polyreactivity”.

“QVQLVESGGGLVQAGGSLRLSCAASGNIFWWNAMGWYRQAPGKERELVAAITSDSTTYYADSVKGRFTISRDNAKNTVYLQMNSLKPEDTAVYYCNTVAYLRRFDKWGMNYWGQGTQVTVSS”: the “polyreactivity (PSR sort gate)” value is listed as “low polyreactivity”.

As to “QVQLVESGGGLVQAGGSLRLSCAASGNIFYPNAMGWYRQAPWKERELVARISWRGVSTYYADSVKGRFTISRDNAKNNVYLQMNSLKPEDTEVYYCNVRPYYGRTRIKYDYWGQGTQVTVSS”, the “polyreactivity (PSR sort gate)” value is given as “high polyreactivity”.

Turning to “QVQLVESGGGLVQAGGSLRLSCAASGNIFYRYPMGWYRQAPGKEREMVAAISRSGGSTYYADSVKGRFTISRDNAKNSVYLQRNSLKPEDTAVYYCAAEYQGFWWYGDYDYWGQGTQVTVSS”, the “polyreactivity (PSR sort gate)” value is given as “high polyreactivity”.

For the sequence “QVQLVESGGGLVQAGGSLRLSCAASGNIFYTNAMGWYRQAPGKERELVAAISGSGGRTYYADSVKGRFTISRDNAKNTVYLQMNSLKPEDTAVYYCNAVRREYYDRTYGYWGQGTQVTVSS”, the “polyreactivity (PSR sort gate)” value was “low polyreactivity”.

Regarding “QVQLVESGGGLVQAGGSLRLSCAASGNIFYVYAMGWYRQAPGKERELVAVISRNDGSTYYADSVKGRFTISRDNAKNTVYLQMNSLKPEDTAVYYCNAEWYFWGQGTQVTVSS”, the “polyreactivity (PSR sort gate)” value is on record as “low polyreactivity”.

As to “QVQLVESGGGLVQAGGSLRLSCAASGNIISTYAMGWYRQAPGKERELVAAITSSSARTYYADSVKGRFTISRDNAKNTVYLQLNSLKPEDTAVYYCATRTGIRQDLVHLYRVYYWGQGTQVTVSS”, the “polyreactivity (PSR sort gate)” value was “high polyreactivity”.

As to “QVQLVESGGGLVQAGGSLRLSCAASGNILEYNAMGWYRQAPGKERELVAAISRGGITNYADSVKGRFTISRDNAKNTVYLQMNSLKPEDTAVYYCATRWIGYTSQWDHFEYDYWGQGTQVTVSS”, the “polyreactivity (PSR sort gate)” value is “low polyreactivity”.

“QVQLVESGGGLVQAGGSLRLSCAASGNILEYNAMGWYRQAPGKEREMVAAISRGGITNYADSVKGRFTISRDNAKNTVYLQMNCLKPEDTAVYYCATRWIGYTSQWDHFEYDYWGQGTQVTVSS”: the “polyreactivity (PSR sort gate)” value is on record as “low polyreactivity”.

Turning to “QVQLVESGGGLVQAGGSLRLSCAASGNILIGNVMGWYRQAPGKERELVAAITSGGDTYYADSVKGRFTISRDNAKNTVYLQMNSLKPEDTAVYYCAADRPGQPKYEYWGQGTQVTVSS”, the “polyreactivity (PSR sort gate)” value is “low polyreactivity”.

With “QVQLVESGGGLVQAGGSLRLSCAASGNILLFNAMGWYRQAPGKERELVATINQSGGRTYYADSVKGRFTISRDNAKNTVYLQMNSLKPEDTAVYYCAATYVYWTWGYDYWGQGTLVTVSS”, the “polyreactivity (PSR sort gate)” value was “low polyreactivity”.

Consider “QVQLVESGGGLVQAGGSLRLSCAASGNILRGYAMGWYRQAPGKERELVAAINRGGGSTYYADSVKGRFTISRDNAKNTVYLQMNSLKPEDTAVYYCAARYPHRGYTFDYWGQGTQVTVSS”, for which the “polyreactivity (PSR sort gate)” value was “low polyreactivity”.

Take “QVQLVESGGGLVQAGGSLRLSCAASGNILRSYAMGWYRQAPGKERELVAAISADGSGTYYADSVKGRFTISRDNAKNTVYLQMNSLKPEDTAVYYCAAERYFWWYYDPENYWGQGTQVTVSS”: the “polyreactivity (PSR sort gate)” value was “high polyreactivity”.

Take “QVQLVESGGGLVQAGGSLRLSCAASGNIVDYYGMGWYIQAPGKERELVAAINVSGDSTYYADSVKGRFTISRDNAKNTVYLQMNSLKPEDTAVYYCAADYGWGSGFEYDYWGQGTQVTVSS”: the “polyreactivity (PSR sort gate)” value is on record as “low polyreactivity”.

Take “QVQLVESGGGLVQAGGSLRLSCAASGNNFYRNAMGWSRQAPGKERELVAAINSGSSTKYADSVKGRFTISRDNAKNTVYLQMNSLKPEDTAVYYCAKRRYTAIWYGYWGQGSQVTVSS”: the “polyreactivity (PSR sort gate)” value is reported as “high polyreactivity”.

Take “QVQLVESGGGLVQAGGSLRLSCAASGNNLLGYAMGWYRQAPGKEREWVAAISSSGGRTYYADSVKGRFTISRDNAKNTVYLQMNSLKPEDTAVYYCAAYTYSAGGYWGQGTQVTVSS”: the “polyreactivity (PSR sort gate)” value was “high polyreactivity”.

Consider “QVQLVESGGGLVQAGGSLRLSCAASGNTFAGNAKGCYRQAPGKERELVAAISRSGVTTRYADSVKGRFTISRDNAKNTVYLQMNSLKPEDTAVYYCNADPRLRQTRDYWGQGTQVTVSS”, for which the “polyreactivity (PSR sort gate)” value is recorded as “high polyreactivity”.

For the sequence “QVQLVESGGGLVQAGGSLRLSCAASGNTFAGNAMGWYRPAPGKERELVAAISRSGVTTRYADSVKGRVTISRDNAKHTVYLQMNSLKPEDTAVYYCNADPRLRQTRDYWGQGTQVTVSS”, the “polyreactivity (PSR sort gate)” value is on record as “high polyreactivity”.

With “QVQLVESGGGLVQAGGSLRLSCAASGNTFAGNAMGWYRQATGKERELVAAISWSGTRTYYADSVKGRFTISRDNAKNTVYLQMNSLKPEDTAVYYCAKLSTNKEYYWGQGTQVTVSS”, the “polyreactivity (PSR sort gate)” value is recorded as “high polyreactivity”.

As to “QVQLVESGGGLVQAGGSLRLSCAASGNTFAGYAMGWYRQAPGKEMEWVAAISTRGGITYYADSVKGRFTISRDNAKNTVYLQMNCLKPEDTAVYYCAAEFYYPWTYCSCDGRRVYYWGQGTQVTVSS”, the “polyreactivity (PSR sort gate)” value was “high polyreactivity”.

Take “QVQLVESGGGLVQAGGSLRLSCAASGNTFAHYVMGWYRQAPGKERELVASITSGGSTNYADSVKGRFTISRDNAKNTVYLQMNSLKPEDTAVYYCAVSLSYWYEAFTTRIDYYYWGQGTQVTVSS”: the “polyreactivity (PSR sort gate)” value is reported as “high polyreactivity”.

With “QVQLVESGGGLVQAGGSLRLSCAASGNTFANYAMGWYRQAPGKERELVAAITSNGGSTYYADSVKGRFTISRDNAKNTVYLQMNSLKPEDTAVYYCAADAAYYSGYDYWGQGTQVTVSS”, the “polyreactivity (PSR sort gate)” value is listed as “low polyreactivity”.

With “QVQLVESGGGLVQAGGSLRLSCAASGNTFASYVMGWYRQAPGNERELVAAISWSGGSTYYADSVKGRFTISRDNAKNTVYLQMNSLKPEDTAVYYCNAKRNVRYGYWGQGTQVTVSS”, the “polyreactivity (PSR sort gate)” value is listed as “high polyreactivity”.

Turning to “QVQLVESGGGLVQAGGSLRLSCAASGNTFATYALGWYRQAPGKERELVAAITWSGGSTYYADSVKGRFTISRDNAKNTVYLQMNSLKPEDTAVYYCAADYLYYAIPAYYWDTGYDYWGQGTQVTVSS”, the “polyreactivity (PSR sort gate)” value was “low polyreactivity”.

As for “QVQLVESGGGLVQAGGSLRLSCAASGNTFAVNAMGWYRQAPGKERELVAAISKRGGRTYYADSVKGRFTISRDNAKNTVYLQMNSLKPEDTAVYYCAADLSNSMDYWGQGTQVTVSS”, the “polyreactivity (PSR sort gate)” value is recorded as “high polyreactivity”.

Turning to “QVQLVESGGGLVQAGGSLRLSCAASGNTFAYNVMGWYRQAPGKERELVAAISRSGGSTYYADSVKGRFTISRDNAKNTVYLQMNSLKPEDTAVYYCAAVVRRVRPEGSYNRWGHDYWGQGTQVTVSS”, the “polyreactivity (PSR sort gate)” value is recorded as “high polyreactivity”.

For “QVQLVESGGGLVQAGGSLRLSCAASGNTFDIYAMGWYRQAPGKERELVAAISRRGGSTYYADSVKGRFTISRDNAKNTVYLQMNSLKPEDTAVYYCNAKHKITHSSSDYWGQGTQVTVSS”, the “polyreactivity (PSR sort gate)” value is listed as “high polyreactivity”.

Regarding “QVQLVESGGGLVQAGGSLRLSCAASGNTFFKNAMGWYRQAPGKERELVAAISKRGGSTYYADSVKGRFTISRDNAKNTVYLQMNSLIPEDTAVYYCAADTFGVYASTYDYWGQGTQVTVSS”, the “polyreactivity (PSR sort gate)” value is given as “high polyreactivity”.

“QVQLVESGGGLVQAGGSLRLSCAASGNTFFVYAMGWYRQAPGKERELVADINWSTGSTYYADFVKGRFTISRDNAKNTVYLQMNSLKPEDTAVYYCAAEAYYYVIFHGSWYTDDYWGQGTQVTVSS”: the “polyreactivity (PSR sort gate)” value is listed as “low polyreactivity”.
